Columns and labels:
Test in all cases: SEC + co-IP
Mcm4 = biological target: T1, Mcm4 (Saccharomyces cerevisiae, UniProt P30665 1-933)
T1 sequence: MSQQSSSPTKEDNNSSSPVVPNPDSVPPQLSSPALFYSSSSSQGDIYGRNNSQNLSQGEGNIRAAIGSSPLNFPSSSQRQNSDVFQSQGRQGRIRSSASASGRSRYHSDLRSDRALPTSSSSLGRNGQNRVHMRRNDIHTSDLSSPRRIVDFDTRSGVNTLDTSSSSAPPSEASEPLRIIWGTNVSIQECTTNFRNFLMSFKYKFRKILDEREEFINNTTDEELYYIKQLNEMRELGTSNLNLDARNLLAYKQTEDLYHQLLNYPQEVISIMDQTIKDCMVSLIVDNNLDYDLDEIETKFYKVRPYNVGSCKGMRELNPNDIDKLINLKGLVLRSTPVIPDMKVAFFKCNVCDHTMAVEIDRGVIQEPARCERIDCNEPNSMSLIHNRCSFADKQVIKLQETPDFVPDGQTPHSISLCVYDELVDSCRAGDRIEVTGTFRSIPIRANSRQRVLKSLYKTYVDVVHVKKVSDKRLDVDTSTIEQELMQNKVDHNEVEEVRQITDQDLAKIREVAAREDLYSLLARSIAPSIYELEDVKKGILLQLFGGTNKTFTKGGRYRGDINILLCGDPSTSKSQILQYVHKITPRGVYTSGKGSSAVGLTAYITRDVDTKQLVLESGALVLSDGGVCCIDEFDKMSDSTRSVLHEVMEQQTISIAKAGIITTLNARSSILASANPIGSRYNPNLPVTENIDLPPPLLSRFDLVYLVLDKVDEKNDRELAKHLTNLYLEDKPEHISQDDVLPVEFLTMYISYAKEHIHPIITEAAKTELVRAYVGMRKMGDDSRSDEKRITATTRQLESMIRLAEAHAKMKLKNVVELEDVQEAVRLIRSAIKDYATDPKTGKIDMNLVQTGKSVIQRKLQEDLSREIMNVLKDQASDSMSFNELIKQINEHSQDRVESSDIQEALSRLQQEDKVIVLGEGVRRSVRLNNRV

Mcm6 = Mcm6 (Saccharomyces cerevisiae, UniProt P53091 1-1017)
Chain of Mcm6 (P53091 whole entry): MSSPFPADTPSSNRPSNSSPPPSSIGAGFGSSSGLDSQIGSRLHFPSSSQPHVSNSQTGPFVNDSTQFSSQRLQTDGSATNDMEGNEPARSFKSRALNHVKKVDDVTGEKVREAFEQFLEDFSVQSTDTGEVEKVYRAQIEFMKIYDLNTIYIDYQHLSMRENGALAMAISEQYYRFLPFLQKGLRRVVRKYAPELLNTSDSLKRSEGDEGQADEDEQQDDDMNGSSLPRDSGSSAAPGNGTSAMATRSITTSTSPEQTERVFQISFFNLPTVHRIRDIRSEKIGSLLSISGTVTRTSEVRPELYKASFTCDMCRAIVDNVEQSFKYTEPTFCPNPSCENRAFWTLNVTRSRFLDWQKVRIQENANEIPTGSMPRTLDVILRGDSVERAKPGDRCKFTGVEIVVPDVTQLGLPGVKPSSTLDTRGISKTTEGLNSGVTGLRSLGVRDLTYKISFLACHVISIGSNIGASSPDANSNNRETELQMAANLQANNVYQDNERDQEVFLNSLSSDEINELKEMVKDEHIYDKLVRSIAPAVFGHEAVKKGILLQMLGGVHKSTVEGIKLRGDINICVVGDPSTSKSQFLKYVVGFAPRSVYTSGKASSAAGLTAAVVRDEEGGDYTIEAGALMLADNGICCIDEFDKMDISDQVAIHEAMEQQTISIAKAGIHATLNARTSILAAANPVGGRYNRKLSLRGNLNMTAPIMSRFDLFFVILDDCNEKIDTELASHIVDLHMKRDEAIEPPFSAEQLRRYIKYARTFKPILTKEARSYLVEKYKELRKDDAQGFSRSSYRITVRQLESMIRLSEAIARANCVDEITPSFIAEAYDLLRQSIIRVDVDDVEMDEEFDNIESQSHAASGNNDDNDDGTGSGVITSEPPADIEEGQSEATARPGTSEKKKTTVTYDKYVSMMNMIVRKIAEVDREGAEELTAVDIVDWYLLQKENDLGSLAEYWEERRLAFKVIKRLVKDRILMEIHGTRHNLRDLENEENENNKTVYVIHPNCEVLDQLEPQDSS

Mcm2 = biological target: T2, Mcm2 (Saccharomyces cerevisiae, UniProt P29469 1-868)
T2 sequence: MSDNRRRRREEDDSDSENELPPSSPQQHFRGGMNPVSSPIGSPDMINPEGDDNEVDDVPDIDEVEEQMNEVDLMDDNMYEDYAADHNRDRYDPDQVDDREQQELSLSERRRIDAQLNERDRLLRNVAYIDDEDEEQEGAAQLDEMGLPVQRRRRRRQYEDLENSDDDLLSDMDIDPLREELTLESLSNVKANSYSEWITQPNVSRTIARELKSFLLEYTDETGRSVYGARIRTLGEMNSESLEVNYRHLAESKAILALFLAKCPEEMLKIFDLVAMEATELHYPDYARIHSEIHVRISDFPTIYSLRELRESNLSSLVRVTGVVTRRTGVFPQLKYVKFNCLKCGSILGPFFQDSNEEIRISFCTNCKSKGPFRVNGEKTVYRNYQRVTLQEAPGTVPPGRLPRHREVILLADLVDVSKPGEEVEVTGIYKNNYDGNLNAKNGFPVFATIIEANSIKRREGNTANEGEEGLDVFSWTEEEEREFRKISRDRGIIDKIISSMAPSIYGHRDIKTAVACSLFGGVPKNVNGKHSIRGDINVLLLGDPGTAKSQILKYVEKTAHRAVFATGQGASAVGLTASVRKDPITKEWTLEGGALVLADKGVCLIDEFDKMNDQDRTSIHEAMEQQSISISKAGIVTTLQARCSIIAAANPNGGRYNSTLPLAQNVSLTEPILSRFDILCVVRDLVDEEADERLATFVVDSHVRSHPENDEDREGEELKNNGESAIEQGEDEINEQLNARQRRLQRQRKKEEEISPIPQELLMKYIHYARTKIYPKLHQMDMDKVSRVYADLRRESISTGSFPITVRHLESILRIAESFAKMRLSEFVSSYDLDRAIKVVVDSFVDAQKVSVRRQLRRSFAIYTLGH

Mcm3 = Mcm3 (Saccharomyces cerevisiae, UniProt P24279 1-971)
Chain of Mcm3 (P24279 whole entry): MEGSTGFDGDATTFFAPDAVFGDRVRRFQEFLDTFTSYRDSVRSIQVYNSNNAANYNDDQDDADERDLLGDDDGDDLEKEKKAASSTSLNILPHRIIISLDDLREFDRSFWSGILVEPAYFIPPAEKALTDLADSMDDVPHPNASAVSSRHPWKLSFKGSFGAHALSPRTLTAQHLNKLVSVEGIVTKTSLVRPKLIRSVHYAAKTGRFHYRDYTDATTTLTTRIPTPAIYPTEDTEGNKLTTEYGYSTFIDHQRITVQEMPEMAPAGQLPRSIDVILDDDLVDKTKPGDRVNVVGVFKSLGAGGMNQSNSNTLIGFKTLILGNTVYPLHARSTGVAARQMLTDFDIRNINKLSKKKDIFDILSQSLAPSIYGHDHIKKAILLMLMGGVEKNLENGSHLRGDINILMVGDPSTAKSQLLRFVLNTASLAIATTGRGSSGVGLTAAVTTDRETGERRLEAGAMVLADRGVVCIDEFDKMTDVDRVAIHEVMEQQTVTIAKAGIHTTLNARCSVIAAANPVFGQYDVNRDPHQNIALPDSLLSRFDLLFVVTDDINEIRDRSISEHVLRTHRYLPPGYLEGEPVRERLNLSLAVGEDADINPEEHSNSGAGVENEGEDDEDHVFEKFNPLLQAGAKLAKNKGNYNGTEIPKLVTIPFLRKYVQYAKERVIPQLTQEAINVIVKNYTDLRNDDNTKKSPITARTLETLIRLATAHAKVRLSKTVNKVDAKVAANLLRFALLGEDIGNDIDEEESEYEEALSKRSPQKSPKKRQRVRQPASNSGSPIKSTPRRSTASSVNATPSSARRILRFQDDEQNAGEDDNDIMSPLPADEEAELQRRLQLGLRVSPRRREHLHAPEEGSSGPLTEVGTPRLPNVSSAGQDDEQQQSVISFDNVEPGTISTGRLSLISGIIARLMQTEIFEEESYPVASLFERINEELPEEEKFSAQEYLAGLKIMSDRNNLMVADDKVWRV

Measured: binding result

B1: Mcm7 (natural protein)
chain: MSAALPSIQLPVDYNNLFNEITDFLVTFKQDTLSSDATRNENEDENLDAENIEQHLLEKGPKYMAMLQKVANRELNSVIIDLDDILQYQNEKFLQGTQADDLVSAIQQNANHFTELFCRAIDNNMPLPTKEIDYKDDVLDVILNQRRLRNERMLSDRTNEIRSENLMDTTMDPPSSMNDALREVVEDETELFPPNLTRRYFLYFKPLSQNCARRYRKKAISSKPLSVRQIKGDFLGQLITVRGIITRVSDVKPAVEVIAYTCDQCGYEVFQEVNSRTFTPLSECTSEECSQNQTKGQLFMSTRASKFSAFQECKIQELSQQVPVGHIPRSLNIHVNGTLVRSLSPGDIVDVTGIFLPAPYTGFKALKAGLLTETYLEAQFVRQHKKKFASFSLTSDVEERVMELITSGDVYNRLAKSIAPEIYGNLDVKKALLLLLVGGVDKRVGDGMKIRGDINVCLMGDPGVAKSQLLKAICKISPRGVYTTGKGSSGVGLTAAVMKDPVTDEMILEGGALVLADNGICCIDEFDKMDESDRTAIHEVMEQQTISISKAGINTTLNARTSILAAANPLYGRYNPRLSPLDNINLPAALLSRFDILFLMLDIPSRDDDEKLAEHVTYVHMHNKQPDLDFTPVEPSKMREYIAYAKTKRPVMSEAVNDYVVQAYIRLRQDSKREMDSKFSFGQATPRTLLGIIRLSQALAKLRLADMVDIDDVEEALRLVRVSKESLYQETNKSKEDESPTTKIFTIIKKMLQETGKNTLSYENIVKTVRLRGFTMLQLSNCIQEYSYLNVWHLINEGNTLKFVDDGTMDTDQEDSLVSTPKLAPQTTASANVSAQDSDIDLQDA
binds: Mcm4 | Mcm6 | Mcm2 | Mcm3

— article PMC2952866 (Nucleic Acids Research, 2010)
